Laboratory results taken from the nanobody polyreactivity screen of Harvey et al. (2022).

Experiment: yeast display, Sf9 membrane polyspecificity reagent, FACS + sequencing; frameworks hold sequencing errors
Outline: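 After 36–48 hours of galactose induction, yeast (Saccharomyces cerevisiae BJ5465) displaying a synthetic nanobody library were stained at 4 °C for 1 hour with 10% biotinylated, detergent-solubilized Sf9 membrane reagent. Streptavidin microbeads enriched the stained cells before FACS sorting into low and high (top ~1%) gates on anti-HA and streptavidin fluorescence. Each clone's polyreactivity label reflects its gate of origin.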

| Sequence | polyreactivity (PSR sort gate) |
| --- | --- |
| QVQLVESGGGLVQAGGSLRISCAASGITFRYYAMGWSIQAPGKERELVAAITCNGGGTYADSVKGRFTISRDNAKYTVYLEMNSLKPEDTAVYSCSADYGRRWGYDYWGQGTQVTVSS | low polyreactivity |
| QVQLVESGGGLVQAGGSLRLSCAASGLTFGGNAMGWYRQAPGKERELVAAISGSGGRTYYADSVKGRFTISRDNEKNTVYLQMNSLKPEDTAVYYCNAATNRRTSDYWGQGTQVTVSS | high polyreactivity |
| QVQLVESGGGLVQAGGSLRLSCAASGSTFRFNAMGWYRQAPGKERELVAAITGIGGITYYADSVKGRFTISRDNAKNTVYLQMNSLKPEDTAVYYCNAVAARYSVRNGYSTHYDYWGQGTQVTVSS | high polyreactivity |
| QVQLVESGGGLVHAGGSLRLSSAASGSIYYYAMGWYRQAPGKERELVAAITWRGGRTYYADSVKGRFTISRDNAKNNVYLQMNILKPEDTAVYYCNDVAPGKYNHWGQGTQVNVSS | high polyreactivity |
| VVQLVESGGGLVQAGGRLRLSCAASGIIFGRYAMGWYRQAPGKERELVASITGNGSTTYYADSVKGRFTISRDNAKNTVYLQMNSLKPDDTAGYYCAADIVVGSPSAEFDYWGQGTQVTVSS | low polyreactivity |
| QVQLVESGGGLVQAGGSLRLSCAASGSIFYAYAMGWYRQAPGKESELVAVISRGGITNYADSVKGRFTISRDNAKNTVYLQMNSLKPEDTAVYYCAAATSAWGYLRRYGYWGQGTQVTVSS | low polyreactivity |
| QVQLVESGGGLVQAGGSLRLSCAASGRTIVVYGMGWYRQAPGKERELVATINYGGNTYYADSVKGRFTISRDNAKNTVYLQLNSLKPEDTAVYYCATRSYARYYTYDYWGQGTQVTVSS | low polyreactivity |
| QVQLVEAGGGLVQAGGSLRLSCAASGRTFKGYAMGWYRPAPGKERELVAAITKRGGSTYYADSVKGRFTISRDNAKNTVYLQMNSLKPEDTAVYYCNADKQGSRHGDDYWGQGTQVTVSS | high polyreactivity |
| QVQLGESGGGLVQAVGSLRLSCAASGSTFRGNAMGWYRQAPAKARELVAANTSDGSTSYADSVKGRFTISRDNAKNTVYLQMNSLKPEDTAVYYSNADYHQSIWEAVDFEYDYWGQGTQVTVSS | low polyreactivity |
| QVQLVESGGGLVQAGGSLRLSCAASGRIIAGYTMGWYRQAPGKERELVAAIRSSGRTHYADSVKGRFTISRDNAKNTVYLQMNSLKPEDTAVYYCAARWTYTFAYRFDYWGQGTQVTVSS | high polyreactivity |
| QVQLVESGGGLVQAGGSLRLSCAASGLTFIYYAMGWYRQAPGKERELVAGITRRGGSTYYADSVKGRFTISRDNAKNNVYLQMNSLKPEDTAVYYCAKSPVYRFDSWGQGTQVTVSS | high polyreactivity |
| QVQLVESGGGLVQAGGSLRLSCAASGFTFYGYAMGWYRQAPGKERELVAAITSSGGSTYYADSVKGRFTISRDNAKNTVYLQMNSLKPEDTAVYYCAVVTILVFRYVVPYDYWGQGTQVTVSS | high polyreactivity |
| QVQLVESGGGLVQAGGSLRLSCAASGSIFHPYGMGWYRQAPGKERELVARISWSTSSTNYADSVKGRFTISRDNAKNTVYLQMNSLKPEDTAVYYCAADYYVFPGYDYWGQGTQVTVSS | high polyreactivity |
| QVQLVESGGGLVQAGGSLRLSCAASGRILYRNTMGWYRQAPGKERELVAAISRSGGSTYYADSVKGRFTISRDNAKNTVYLQMNSLKPEDTAVYYCAKSVVARGASTYIGGFYYWGQGTQVTVSS | high polyreactivity |
| QVQLVESGGGLVQAGGSLRLSCAASGSIFKRYAMGWYRHAPGKERELVAAISYSGGSTNYADSVKGRFTISRDNAKNTVYLQMNSLKPEDTAVYYCAKRSTSRGYDYWGQGTQVTVSS | high polyreactivity |
| QVQLVESGGGLVQAGGSLRLSCAASGFTYGINAMGWYRQAPGKERELVASISSGSSTTYADSVKGRFTISRDNATNTVYLQMISLKPEDTAVYYCNARPFHIYWRYDYWGQGTQVTVSS | low polyreactivity |
| QVQLVESGGGLVQAGGSLRLSCAASGRTYSYYAMGSYRQAPGKERELVAAITTSGGSTYYADSVKGRFTISRDNAKNTVYLQMNSLKPEDTAVYYCNALSSGVYLYDYWGQGTQVTVSS | high polyreactivity |
| QVQLVESGGGLVQAGGSLRLSCPASGYTFYVYAMGWYRQAPGKERELVAAIGGGSTNYADSVKGRFTISRDNAKNTVYLQMNSLKPEDTAVYYCAARRYYKFYYWGQGTQVTVSS | high polyreactivity |
| QVQLVESGGGLVQAGGSLRLSCAASGRTFNYSAMGWYRQAPGTERELVAAISSSGGRTYYADSVKGRFTISRDNAKITVYLQMNSLKPEDTAVYYCAADSFYYRPEYDYWGQGTQVTVSS | low polyreactivity |
| QVQLVESGGGLVQAGGSLRLSCAPSGNIFAINALGWYRQAPGKESELVATITGGGGSTSYADSVKGRFTISRDNAKNTVYLQMNSLKPEDTAVYSCAADTVYYYGEWYDYWNYVWFDYWGQGTQVTVSS | low polyreactivity |
| QVQLVESGGRIVQAGGSLRLRCAASGRTLLRYAMGWSRQAPGKERELVAAISSSGGRTYYADSVKGRFTISRDNEKNTVYLQMNSLKPEDTAVYYCAAKSSYVGHDYWGQGTQVTVSS | high polyreactivity |
| QVKLVESGGGLVHAGGSLRLSCSASGRIIGFNAMGVYRQAPGKERELVASIRTTGGSTRYADSVKGRFTISRDNAKNTVSLQMNSLKPEDTAVYYCAARWGKTRWQYNYWGHGTQVTVSS | high polyreactivity |

| Sequence | polyreactivity (PSR sort gate) |
| --- | --- |
| QVQLVESGRGLVQAGGSLRLSCAASGRIFDKYAMGWYRQAPGKERELVAAISSSGGSTYYADSVKGRFTISRDNAKNTVYLQMNSLKTEVTAVYYCARQRYYGYYYWGQGTQVTVSS | high polyreactivity |
| QVQLVESGGGLVQAGGSLRLSCAASGSIFGRYAMGWYRQAPGKERELVAAISYSGGSTYYADSVKGRFTISRDNAKNTVYLQMNSLKPEDTAFYYCAAETSYYTRWFDGHYYYWGQGTQVTVSS | high polyreactivity |
| QVQLVESGGGLVQAGGSLRLSCAASGSTFDIYVMGWYRQAPGKERELVAAISRVGNTSYADSVKGRFTISRDNAKNTVYLQMNSLKPEDTAVYYCAADAPSWYDRQYDYWGQGTQVTVSS | low polyreactivity |
| QVQLVESGGGLDQAGGSLRLSCAASGRTFAYYAIGWYRQAPGKERELVATITSYVGRTYYADSVKGRFTISRDNAKKSVYLQMNSLKPDDTAVYYSNARDWGRTRGGGYPWLYRYDYWGQGTQVTVSS | low polyreactivity |
| QVQVVESGGGLVQAGGSLSLSCAASGGIFHSNAMGWYRQAPGKERELVAAISWNTGSTYYADSVKGRFTISRDNAKQTVYLQMNSLKPEDTAVYYCAASYRSPWLRYDYWGQGTQVTVSS | high polyreactivity |
| QVQLVESGGGLVQAGGSLRLSCAASGRIFSYNAMGWYRQAPGKERELVAAISYRGGSTYYADSVKGRFTISRDNAKNTVYLQMNSLKPEDTAVYYCNAEAYYPYGYDYWGQGTQVSVSS | low polyreactivity |
| QVQLVESGVGLVQAGGSLRLSCAASGSTFYRYAMGWYRQAPGKERELVAAIRGSGGRTYYADSVKGRFTISRDNAKNTVYLQMNSLKPEDTAVYYCAAYRGVSQKGDYWGQGTQVTVSS | high polyreactivity |
| QVQLVESGGGLDQAGGSLRLSCPASGITFGYNDMGRYRQAPGKERELVAAINRGASTYYADSVKGRFTISRDNAKNTVYLQMYSLKPEDTAVYYCNADHRDTFIWVGLPHMDYWGQGTQVTVSS | low polyreactivity |
| QVQLVESGGGLVQAGGSLRLSCAASGSTFASYAMGWYIQAPGKERELVAAITDSGGSTYYADSVKGRFTISRDNAKNTVYLQMNSLKPEDTAVYYCAAYGPYFSYHDYDYWGQGTQVTVSS | low polyreactivity |
| QVQLVESGGGLVQAGGTLRLSCAASGSTYDTYTMGGYSQAPGKERVLVAAITSSGDSTYYADSVKGRSTISRDNAKNTVYLQMNSLKPEDTAVYYCAAEVTVWLYYLYVGEYEYWGQGTQVTVSS | high polyreactivity |
| QVQLVESGGGLVQAGGSLRLSCAASGSIFVYNAMGWYRQAPGKEWELVAAISFSGGDTYYADSVKGRFTISRDNAKNTVYLQMNSLKPEDTAVYYCNVDNSEYEGDYWGQGTQVTVSS | low polyreactivity |
| QVQLVESGGGLVQAGGSLRLSCAASGSTFDINAMGWYRQAPGKERELVAAITSGGGTNYADSVKGRFTISRDNAKNTVYLQMNSMKPEDTAVYYCAARVRGKYDYWGQGTQVTVSS | high polyreactivity |
| QVQLVESGGCLVQAGVSLRLSCAASGSIFSPYAMGWYRQAPGKEREFVASITFNGGSTYYADSVKGRFTISRDNAKNTVYLQMNSLKPEDTAVYYCAASYWYDTYWLMDYWGQGPQVTVSS | high polyreactivity |
| QVQLEESGGGLVQAGGSLRLSCAASGSIFVHNDMGWYRQAPGKERELVATIDSAGGTYYADSVKGRFTISRDNAKNTVYLQMNSLKPEDTAVYYCAAYGPYVLSIYDYWGQGTQVTVSS | low polyreactivity |
| QVQLVESGAGLVQAGGSLRLSCAASGSTFVINAMGWYRQPPGKEREFVADIDYRGGSTNYADSVKGRFTISHDNAKNTFYLQMNSLKPEDTAVYYCAAARVTIRSSHWSVDYWGQGTQVTVSS | low polyreactivity |
| QVQLVESGGGLVQAGGSLRLSCAASGSTFYRYAMGWYRQAPGKERELVAGISSSGGSTYYADSVKGRFTISRDNAKNTVYLQMNSLKPEDTAVYYCAAVGQWGYGYWGQGTQVTVSS | high polyreactivity |
| QVQLVESGGGLVQAGGSLRLSCAASGSIFRVYAMGWYRQAPGKERELVARISRTGVSTYYADSVKGRFTISRDNAKNTVYLQMNSLKPEDTAVYYCAVLIPYSSRSYRSTWYGYWGQGTQVTVSS | high polyreactivity |
| QVQHVESAGGLVQAGGSLRLSCAASGSIFPYNAMGWYRQAPGKERELVAAISYSGSTTYYADSVKRRFTISRDNSKNTVYLQMNSLKPEDTAVYYCNTLSWYQYDYWGQGTQVTVSS | high polyreactivity |
| QVQLVESGGGLVQAGGSLRLSCAASGSIFTVNAMGWYRQAPGKERELVAAISSGGSTHYADSVKGRFTISRDNAKNTVYLQMNSLKPEDTAVYYCAAEVSYYLNEFDYWGQGTQVTVSS | low polyreactivity |
| QVQLVESGGGLVHAGGSLRLSSAASGRTFLSYTMGWYRQAPGKERELVAVISRSGGRTYYADSVKGRFTISRDNATNTVYLQMNSLKPEDTADYYCAADTYRGYDFDYWGQGSQVTVSS | high polyreactivity |
| QVQLVESGGGLVQAGGSLRLSCAASGFIFPDYAMGWYRQAPGKERELVAAISFRDGSTYYADSVKGRFTISRDNAKNTVYFQINSLKPEDTAVYYCNAGPQYDVHEYYYWGQGSQVTVSS | low polyreactivity |
